Each block holds one binder with its values, some of them ahead of it. Numbered stars: 1 amine (or outer) side, 2 acyl side, 3 side chain; on linkers, the order of the positions; unused ones are H or OH. Square brackets hold non-standard residues; d marks the D form. Side chains are listed from the residue outwards. * marks the point of attachment. C18 diacid = O=C(O)CCCCCCCCCCCCCCCCC(=O)*; γGlu = O=C(O)[C@H](CCC(=O)[*:2])N[*:1]; AEEA = NCCOCCOCC(=O)O; Aib = CC(C)(N)C(=O)O
Experiments:
Assay in all cases: cell-based or functional assay
[1] = biological target: T1, human GLP-1 receptor (human, UniProt P43220 24-463)
[2] = biological target: T2, human GIP receptor (human, UniProt P48546 22-466)
T2 sequence (looked up): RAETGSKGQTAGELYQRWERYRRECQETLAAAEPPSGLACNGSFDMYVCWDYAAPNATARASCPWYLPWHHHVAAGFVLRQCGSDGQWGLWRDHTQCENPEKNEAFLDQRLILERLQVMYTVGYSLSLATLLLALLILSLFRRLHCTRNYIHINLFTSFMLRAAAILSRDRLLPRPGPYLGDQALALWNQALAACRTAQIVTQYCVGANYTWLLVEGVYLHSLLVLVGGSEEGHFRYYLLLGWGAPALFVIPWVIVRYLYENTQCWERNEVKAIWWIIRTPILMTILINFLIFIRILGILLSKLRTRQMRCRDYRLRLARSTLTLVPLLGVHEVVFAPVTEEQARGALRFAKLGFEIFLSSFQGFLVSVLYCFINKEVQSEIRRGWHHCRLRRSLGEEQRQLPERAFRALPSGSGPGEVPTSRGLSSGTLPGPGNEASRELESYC

[3] = biological target: T3, human amylin-3(a) receptor (human, UniProt P30988 25-474; O60896 24-148)
T3 sequence (looked up) 1: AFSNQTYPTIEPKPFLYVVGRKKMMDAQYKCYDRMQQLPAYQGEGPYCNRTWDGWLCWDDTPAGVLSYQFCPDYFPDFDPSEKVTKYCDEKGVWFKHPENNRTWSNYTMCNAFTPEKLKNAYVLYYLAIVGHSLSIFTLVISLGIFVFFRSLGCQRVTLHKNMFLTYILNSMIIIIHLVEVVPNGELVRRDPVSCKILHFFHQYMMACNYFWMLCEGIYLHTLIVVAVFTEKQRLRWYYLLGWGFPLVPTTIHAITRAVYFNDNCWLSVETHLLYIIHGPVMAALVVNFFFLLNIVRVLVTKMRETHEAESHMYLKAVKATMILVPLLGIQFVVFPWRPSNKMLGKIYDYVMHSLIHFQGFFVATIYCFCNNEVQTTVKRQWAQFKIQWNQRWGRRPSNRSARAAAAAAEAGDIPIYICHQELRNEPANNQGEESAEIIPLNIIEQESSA
T3 sequence (looked up) 2: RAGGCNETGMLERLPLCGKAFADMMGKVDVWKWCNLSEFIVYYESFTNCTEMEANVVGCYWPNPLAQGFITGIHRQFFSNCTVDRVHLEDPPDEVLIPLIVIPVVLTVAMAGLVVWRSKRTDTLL

[4] = biological target: T1, human GLP-1 receptor; remark: listed apart in the source
[5] = biological target: T2, human GIP receptor; remark: listed apart in the source
[6] = biological target: T3, human amylin-3(a) receptor; remark: listed apart in the source

B1: Compound 89 (peptide)
peptide: H[Aib]HGTFTSDYSILLEEQAAREFIEWLLAGGPSSGEASHLSTAALGRLSAELHRLK([AEEA-AEEA-γGlu-C18 diacid])TLPRTETGSGSP-NH2
hGLP-1R Potency, no HSA, EC50 [pM] [1]: 3.86 pM
hGIPR Potency, no HSA, EC50 [pM] [2]: 6.47 pM
hAMYR3 Potency, no HSA, EC50 [pM] [3]: 3.12 pM
hGLP-1R Potency, 1% HSA, EC50 [pM] [4]: 29.5 pM
hGIPR Potency, 1% HSA, EC50 [pM] [5]: 30.6 pM
hAMYR3 Potency, 1% HSA, EC50 [pM] [6]: 39.7 pM

B3: Compound 82 (peptide)
peptide: H[Aib]HGTFTSDYSILLEEQAAREFIEWLLAGGPSSGEASHLSTAQTQRLSAK([AEEA-AEEA-γGlu-C18 diacid])LHRLATLPRTETGSGSP-NH2
hGLP-1R Potency, no HSA, EC50 [pM] [1]: 3.45 pM
hGIPR Potency, no HSA, EC50 [pM] [2]: 3.7 pM
hAMYR3 Potency, no HSA, EC50 [pM] [3]: 3.26 pM
hGLP-1R Potency, 1% HSA, EC50 [pM] [4]: 24.2 pM
hGIPR Potency, 1% HSA, EC50 [pM] [5]: 19.1 pM
hAMYR3 Potency, 1% HSA, EC50 [pM] [6]: 38 pM

B4: Compound 93 (peptide)
peptide: H[Aib]HGTFTSDYSILLEEQAAREFIEWLLAGGPSSGAGQAPGQAPLASHLSTAQTQRLSAELHK([AEEA-AEEA-γGlu-C18 diacid])LATLPRTETGSGSP-NH2
hGLP-1R Potency, no HSA, EC50 [pM] [1]: 4.11 pM
hGIPR Potency, no HSA, EC50 [pM] [2]: 2.54 pM
hAMYR3 Potency, no HSA, EC50 [pM] [3]: 2.23 pM
hGLP-1R Potency, 1% HSA, EC50 [pM] [4]: 16.4 pM
hGIPR Potency, 1% HSA, EC50 [pM] [5]: 8.58 pM
hAMYR3 Potency, 1% HSA, EC50 [pM] [6]: 66.4 pM

B6: Compound 78 (peptide)
peptide: H[Aib]HGTFTSDYSILLEEQAAREFIEWLLAGGPSSGAGQAPGQAPGASHLSTAQTQRLSAK([AEEA-AEEA-γGlu-C18 diacid])LHRLATLPRTETGSGSP-NH2
hGLP-1R Potency, no HSA, EC50 [pM] [1]: 4.03 pM
hGIPR Potency, no HSA, EC50 [pM] [2]: 3.49 pM
hAMYR3 Potency, no HSA, EC50 [pM] [3]: 1.83 pM
hGLP-1R Potency, 1% HSA, EC50 [pM] [4]: 17.8 pM
hGIPR Potency, 1% HSA, EC50 [pM] [5]: 10.4 pM
hAMYR3 Potency, 1% HSA, EC50 [pM] [6]: 17.1 pM

B7: Compound 90 (peptide)
peptide: H[Aib]HGTFTSDYSILLEEQAAREFIEWLLAGGPSSGEASHLSTAALGRLSAELHRLATLPK([AEEA-AEEA-γGlu-C18 diacid])TETGSGSP-NH2
hGLP-1R Potency, no HSA, EC50 [pM] [1]: 4.16 pM
hGIPR Potency, no HSA, EC50 [pM] [2]: 5.4 pM
hAMYR3 Potency, no HSA, EC50 [pM] [3]: 5.45 pM
hGLP-1R Potency, 1% HSA, EC50 [pM] [4]: 38.6 pM
hGIPR Potency, 1% HSA, EC50 [pM] [5]: 32.5 pM
hAMYR3 Potency, 1% HSA, EC50 [pM] [6]: 183 pM

Second part, the binder after the results:

hGLP-1R Potency, no HSA, EC50 [pM] [1]: 24.8 pM
hGIPR Potency, no HSA, EC50 [pM] [2]: 4.01 pM
hAMYR3 Potency, no HSA, EC50 [pM] [3]: 3.23 pM
hGLP-1R Potency, 1% HSA, EC50 [pM] [4]: 111 pM
hGIPR Potency, 1% HSA, EC50 [pM] [5]: 20.2 pM
hAMYR3 Potency, 1% HSA, EC50 [pM] [6]: 62.4 pM
B2: Compound 80 (peptide)
peptide: Y[Aib]EGTFTSDYSILLEEQAAREFIEWLLAGGPSSGEASHLSTAQTQRLSAELHRLK([AEEA-AEEA-γGlu-C18 diacid])TLPRTETGSGSP-NH2

hGLP-1R Potency, no HSA, EC50 [pM] [1]: 2.55 pM
hGIPR Potency, no HSA, EC50 [pM] [2]: 3.12 pM
hAMYR3 Potency, no HSA, EC50 [pM] [3]: 2.64 pM
hGLP-1R Potency, 1% HSA, EC50 [pM] [4]: 13.4 pM
hGIPR Potency, 1% HSA, EC50 [pM] [5]: 8.53 pM
hAMYR3 Potency, 1% HSA, EC50 [pM] [6]: 75.1 pM
B5: Compound 92 (peptide)
peptide: H[Aib]HGTFTSDYSILLEEQAAREFIEWLLAGGPSSGAGQAPGQAPGASHLSTAQTQRLSAELHRLATLPK([AEEA-AEEA-γGlu-C18 diacid])TETGSGSP-NH2

hGLP-1R Potency, no HSA, EC50 [pM] [1]: 3.31 pM
hGIPR Potency, no HSA, EC50 [pM] [2]: 3 pM
hAMYR3 Potency, no HSA, EC50 [pM] [3]: 4.41 pM
hGLP-1R Potency, 1% HSA, EC50 [pM] [4]: 25.9 pM
hGIPR Potency, 1% HSA, EC50 [pM] [5]: 11.6 pM
hAMYR3 Potency, 1% HSA, EC50 [pM] [6]: 175 pM
B8: Compound 84 (peptide)
peptide: H[Aib]HGTFTSDYSILLEEQAAREFIEWLLAGGPSSGEASHLSTAQTQRLSAELHRLATLPK([AEEA-AEEA-γGlu-C18 diacid])TETGSGSP-NH2

Reference: US20260174875A1 (Novo Nordisk A/S, priority 2023, published 2026)
